Reference: publication PMC8938923, “Essential Functional Interplay of the Catalytic Groups in Acid Phosphatase” (ACS Catalysis, 2022)
Substitutions are numbered along the chain they refer to. In names and notes the source's numbering stands.

B1: ecAGP (α-D-glucose 1-phosphate phosphatase) (Escherichia coli K-12) (protein)
chain: QTVPEGYQLQQVLMMSRHNLRAPLANNGSVLEQSTPNKWPEWDVPGGQLTTKGGVLEVYMGHYMREWLAEQGMVKSGECPPPYTVYAYANSLQRTVATAQFFITGAFPGCDIPVHHQEKMGTMDPTFNPVITDDSAAFSEQAVAAMEKELSKLQLTDSYQLLEKIVNYKDSPACKEKQQCSLVDGKNTFSAKYQQEPGVSGPLKVGNSLVDAFTLQYYEGFPMDQVAWGEIKSDQQWKVLSKLKNGYQDSLFTSPEVARNVAKPLVSYIDKALVTDRTSAPKITVLVGHDSNIASLLTALDFKPYQLHDQNERTPIGGKIVFQRWHDSKANRDLMKIEYVYQSAEQLRNADALTLQAPAQRVTLELSGCPIDADGFCPMDKFDSVLNEAVK
notes: purified enzyme; homodimer; expression construct and tags only in supplement
B2: ecAGP (α-D-glucose 1-phosphate phosphatase) (Escherichia coli K-12; H40D) (protein)
chain: B1 chain with H18D
notes: as for B1
B3: ecAGP (α-D-glucose 1-phosphate phosphatase) (Escherichia coli K-12; D312A) (protein)
chain: B1 chain with D290A
notes: as for B1
B4: YidA (alternative name: HAD13) (Escherichia coli K-12) (protein)
chain: MAIKLIAIDMDGTLLLPDHTISPAVKNAIAAARARGVNVVLTTGRPYAGVHNYLKELHMEQPGDYCITYNGALVQKAADGSTVAQTALSYDDYRFLEKLSREVGSHFHALDRTTLYTANRDISYYTVHESFVATIPLVFCEAEKMDPNTQFLKVMMIDEPAILDQAIARIPQEVKEKYTVLKSAPYFLEILDKRVNKGTGVKSLADVLGIKPEEIMAIGDQENDIAMIEYAGVGVAMDNAIPSVKEVANFVTKSNLEDGVAFAIEKYVLN
notes: construct only in supplement

Columns and labels:
[1] = substrate: O=P(O)(O)O[C@H]1O[C@H](CO)[C@@H](O)[C@H](O)[C@H]1O; experiment: phosphomonoester hydrolysis kinetics; type: biochemical, Escherichia coli
[2] = substrate: O=P(O)(O)O[C@H]1O[C@H](CO)[C@@H](O)[C@H](O)[C@H]1O; experiment: purified protein, by the assay type; design: Michaelis-Menten kinetics of substrate hydrolysis, initial rates of free phosphate release, pH 7.0, 37 °C
Procedure: 8 S1.10 Structure determination and refinement The structure of H18D was determined by molecular replacement with PHASER9 using PDB ID: 1NT4 (H18A) as a search model. Model building was performed with COOT10 and refine-ment was carried out with phenix.refine. 11 The final structures were evaluated using MolPro-bity. 12 The number of Ramachandran outliers was below 0.2%. Figures of the structural models were prepared using PyMol 1.3. 13 S1.11 Phosphatase kinetics The rate constant kcat and the Michaelis constant KM were determined by measuring the initial rate of phosphate hydrolysis catalyzed by wild-type ecAGP (2 nM), H18D or H18D-2 (110 µM), D290A (2 nM - 5 µM, depending on the substrate used) or H18D/D290A (110 µM) in 50 mM HEPES buffer (pH 7.0). Reactions were incubated at 37°C on a Thermomixer comfort (Eppendorf, Hamburg, Germany) with agitation at 650 rpm. The reactions were started by ad-dition of enzyme. Glc1P, Glc6P, and the bis(cyclohexylammonium) salts of [compound left out], 2-nitrophenyl phosphate, 3-nitrophenyl phosphate, [compound left out] phosphate, 4-cyanophenyl S13 phosphate and 3-chlorophenyl phosphate were used as substrates in concentrations ranging from 0.01 mM to 10 mM. Incubation times were adjusted to ensure that the overall substrate hydrolysis was below 10 %. Samples withdrawn were quenched by heating (99°C, 5 min) and the free phosphate concentration was measured in supernatants of centrifuged (16000 × g, 15 min, 4°C) samples. All reactions were performed in triplicate. Kinetic parameters were obtained from non-linear least squares fits (SigmaPlot, Systat, Erkrath, Germany) of initial rates of phosphate release to the Michaelis–Menten equation. V is the initial rate, Vmax is the maximum initial rate, KM is the Michaelis constant and [S] is the initial substrate concentration (equation 1). The kcat was obtained from the relationship, kcat = Vmax/[E], where [E] is the molar concentration of active sites. [E] was obtained from the protein concentration using a molecular mass of the ecAGP subunit of 46674 Da. S10 (Merck Millipore) to a total protein concentration of 13 mg/mL in 10 mM NaAc (pH 4.5). Aliquots of 70 µL were stored at -70°C until use. Purity of the protein preparations was verified by SDS-PAGE. The ecAGP activity was assayed as described below in the section phosphatase kinetics. One unit of ecAGP activity is the amount of enzyme releasing 1 μmol of inorganic phosphate from Glc1P per minute under the conditions applied. S1.5 YidA The YidA from E. coli was used. A N-terminally His-tagged enzyme preparation was applied. […]

Protein	Km [2] [µM]	kcat [2] [s⁻¹]	further results
B1	90 ± 20	35 ± 1.7	kcat ([1]; range printed jointly for wild-type and H18D, individual values in supplement): 35 ± 2 s^–1
B2			kcat ([1]; range printed jointly for wild-type and H18D, phospho-enzyme intermediate on Asp18): 2.0 × 10^–4 s^–1
B3			Km ([1]; general acid-base removed): 1060 ± 120 µM; kcat ([1]; general acid-base removed): 0.014 ± 0.01 s⁻¹
B4	210 ± 30	20 ± 1.3	
